Literature values as cited in paper PMC3253530.
Where two headings read alike, the source gives them in different places.

Tests used:
[1] = target: PTPζ (Homo sapiens) (UniProt P23471)
[2] = target: PTPζ (Homo sapiens) (UniProt P23471); remark: listed apart in the source
[3] = target: LRP-1 (Homo sapiens) (UniProt Q07954)

Chain of UniProt P23471 (P23471 25-1636): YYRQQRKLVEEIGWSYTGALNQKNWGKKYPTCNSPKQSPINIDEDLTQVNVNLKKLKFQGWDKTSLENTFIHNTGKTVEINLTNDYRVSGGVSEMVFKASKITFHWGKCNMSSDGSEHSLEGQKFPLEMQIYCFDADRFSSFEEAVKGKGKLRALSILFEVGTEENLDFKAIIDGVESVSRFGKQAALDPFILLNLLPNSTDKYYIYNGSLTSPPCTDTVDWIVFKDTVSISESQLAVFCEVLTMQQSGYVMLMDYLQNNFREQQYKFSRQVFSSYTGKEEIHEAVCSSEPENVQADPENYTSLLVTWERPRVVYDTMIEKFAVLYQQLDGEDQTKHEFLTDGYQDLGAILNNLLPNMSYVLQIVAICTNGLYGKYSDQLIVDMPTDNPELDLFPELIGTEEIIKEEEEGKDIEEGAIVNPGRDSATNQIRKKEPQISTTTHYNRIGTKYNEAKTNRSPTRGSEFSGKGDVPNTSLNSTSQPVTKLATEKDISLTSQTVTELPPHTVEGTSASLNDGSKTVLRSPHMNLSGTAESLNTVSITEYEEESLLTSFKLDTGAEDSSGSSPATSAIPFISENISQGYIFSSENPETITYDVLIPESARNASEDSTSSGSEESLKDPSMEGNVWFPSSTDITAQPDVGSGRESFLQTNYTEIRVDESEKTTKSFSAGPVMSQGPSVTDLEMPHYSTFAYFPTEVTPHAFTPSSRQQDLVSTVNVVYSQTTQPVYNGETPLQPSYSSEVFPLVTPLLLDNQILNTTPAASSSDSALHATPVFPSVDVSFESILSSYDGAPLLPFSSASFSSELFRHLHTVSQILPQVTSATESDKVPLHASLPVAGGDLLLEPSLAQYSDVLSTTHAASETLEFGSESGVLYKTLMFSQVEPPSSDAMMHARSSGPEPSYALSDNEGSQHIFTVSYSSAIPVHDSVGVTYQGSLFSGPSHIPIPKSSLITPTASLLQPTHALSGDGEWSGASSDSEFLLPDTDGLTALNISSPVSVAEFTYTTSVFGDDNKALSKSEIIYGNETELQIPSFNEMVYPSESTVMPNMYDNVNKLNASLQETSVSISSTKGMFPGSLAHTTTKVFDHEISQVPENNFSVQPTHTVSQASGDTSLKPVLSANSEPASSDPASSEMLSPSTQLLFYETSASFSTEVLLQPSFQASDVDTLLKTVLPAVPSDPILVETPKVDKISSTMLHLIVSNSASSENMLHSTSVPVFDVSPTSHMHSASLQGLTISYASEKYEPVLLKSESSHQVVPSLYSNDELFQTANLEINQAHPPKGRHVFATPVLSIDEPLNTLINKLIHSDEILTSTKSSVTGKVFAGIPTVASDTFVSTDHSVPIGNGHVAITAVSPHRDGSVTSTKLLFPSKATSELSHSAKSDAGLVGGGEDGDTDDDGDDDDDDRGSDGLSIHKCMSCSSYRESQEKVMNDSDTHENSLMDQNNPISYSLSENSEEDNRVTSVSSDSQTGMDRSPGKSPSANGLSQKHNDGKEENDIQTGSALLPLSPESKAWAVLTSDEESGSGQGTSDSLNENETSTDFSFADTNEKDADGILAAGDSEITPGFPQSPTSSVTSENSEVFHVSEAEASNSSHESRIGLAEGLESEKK

Kd [1]: 8.8 nM | Kd [2]: 0.56 nM | Kd [3]: 3.5 nM
Substance: Midkine (from UniProt P21741)
